Measurements reported in PMC6053248, “GROWTH-REGULATING FACTOR 9 negatively regulates arabidopsis leaf growth by controlling ORG3 and restricting cell proliferation in leaf primordia”.

T1: GRF9-CELD (Arabidopsis thaliana (Col-0?)) (UniProt Q8S9M3)
T1 sequence: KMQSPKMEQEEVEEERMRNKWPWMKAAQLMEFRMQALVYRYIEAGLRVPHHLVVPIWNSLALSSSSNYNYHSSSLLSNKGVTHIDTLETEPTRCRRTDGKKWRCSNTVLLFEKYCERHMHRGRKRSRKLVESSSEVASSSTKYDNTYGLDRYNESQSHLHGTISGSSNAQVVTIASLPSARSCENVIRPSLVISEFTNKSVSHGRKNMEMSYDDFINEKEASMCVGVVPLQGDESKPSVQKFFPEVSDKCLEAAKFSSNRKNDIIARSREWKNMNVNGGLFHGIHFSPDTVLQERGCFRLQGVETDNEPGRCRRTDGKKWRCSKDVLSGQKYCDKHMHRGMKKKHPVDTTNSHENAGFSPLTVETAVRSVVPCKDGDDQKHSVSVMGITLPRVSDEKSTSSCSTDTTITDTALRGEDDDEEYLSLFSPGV

T2: GRF9-CELD (Arabidopsis thaliana, UniProt Q8S9M3 2-431)
T2 sequence: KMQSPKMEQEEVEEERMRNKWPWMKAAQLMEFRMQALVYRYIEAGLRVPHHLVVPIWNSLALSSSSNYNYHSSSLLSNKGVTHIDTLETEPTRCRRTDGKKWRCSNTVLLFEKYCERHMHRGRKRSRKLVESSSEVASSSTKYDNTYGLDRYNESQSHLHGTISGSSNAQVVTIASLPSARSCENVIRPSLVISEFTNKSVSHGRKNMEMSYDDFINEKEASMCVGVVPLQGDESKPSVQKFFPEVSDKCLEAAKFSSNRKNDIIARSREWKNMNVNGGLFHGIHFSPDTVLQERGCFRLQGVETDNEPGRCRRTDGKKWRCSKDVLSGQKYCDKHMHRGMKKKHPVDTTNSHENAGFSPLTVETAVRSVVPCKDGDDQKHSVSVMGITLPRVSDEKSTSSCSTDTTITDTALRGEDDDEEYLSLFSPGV

B1: GRFE1m1 (dsDNA)
DNA 1: CCGGTACTGGACTGACACACCAGAACTTCA
DNA 2: TGAAGTTCTGGTGTGTCAGTCCAGTACCGG
B2: GRFE1m4 (dsDNA)
DNA 1: CCGGTACTGGTGTGACATACCAGAACTTCA
DNA 2: TGAAGTTCTGGTATGTCACACCAGTACCGG
B3: ORG3 EMSA competitor (dsDNA)
DNA 1: CTTTCACTTCATACAACCTGACACCAAATCATCCACATCA
DNA 2: TGTGGATGATTTGGTGTCAGGTTGTATGAAGTGAAAG
B4: ORG3 promoter 40-bp EMSA probe (dsDNA)
DNA 1: CTTTCACTTCATACAACCTGACACCAAATCATCCACATCA
DNA 2: TGATGTGGATGATTTGGTGTCAGGTTGTATGAAGTGAAAG
B5: ORG3 EMSA mutated competitor (dsDNA)
DNA 1: CTTTCACTTCATACAACCGGACACCAAATCATCCACATCA
DNA 2: TGATGTGGATGATTTGGTGTCCGGTTGTATGAAGTGAAAG
B6: GRFE1m2 (dsDNA)
DNA 1: CCGGTACTGGCCTGACACACCAGAACTTCA
DNA 2: TGAAGTTCTGGTGTGTCAGGCCAGTACCGG
B7: GRFE1m5 (dsDNA)
DNA 1: CCGGTACTGGTCTGACTTACCAGAACTTCA
DNA 2: TGAAGTTCTGGTAAGTCAGACCAGTACCGG
B8: GRFE1m6 (dsDNA)
DNA 1: CCGGTACTGGTCGGACATACCAGAACTTCA
DNA 2: TGAAGTTCTGGTATGTCCGACCAGTACCGG
B9: GRFE1m3 (dsDNA)
DNA 1: CCGGTACTGGTCTGACAAACCAGAACTTCA
DNA 2: TGAAGTTCTGGTTTGTCAGACCAGTACCGG
B10: GRFE1m7 (dsDNA)
DNA 1: CCGGTACTGGTCTGAGATACCAGAACTTCA
DNA 2: TGAAGTTCTGGTATCTCAGACCAGTACCGG

What was measured:
[1] = molecular target: T1, GRF9-CELD (Arabidopsis thaliana (Col-0?)); test: CELD plate binding assay (streptavidin plate); details: CELD plate assay: 25 mM HEPES/KOH pH 7.0, 50 mM KCl, 0.5 mM DTT, 10 uM ZnCl2, 0.15 ug/ul herring sperm DNA, 0.3 mg/ml BSA, 10% glycerol, 0.025% NP-40, 2 pmol …
[2] = molecular target: T2, GRF9-CELD; test: CELD plate binding assay (streptavidin plate); 10 uM ZnCl2; CELD plate assay: 25 mM HEPES/KOH pH 7.0, 50 mM KCl, 0.5 mM DTT, 10 uM ZnCl2, 0.15 ug/ul herring sperm DNA, 0.3 mg/ml BSA, 10% glycerol, 0.025% NP-40, 2 pmol probe; binding temperature not stated; EMSA buffer not given (cited protocols); details: protein: recombinant; tags: C-terminal CELD (cellulase D) fusion, 6xHis; label: biotin
[3] = molecular target: T2, GRF9-CELD; test: competition; molar excess vs labelled N10; CELD plate assay: 25 mM HEPES/KOH pH 7.0, 50 mM KCl, 0.5 mM DTT, 10 uM ZnCl2, 0.15 ug/ul herring sperm DNA, 0.3 mg/ml BSA, 10% glycerol, 0.025% NP-40, 2 pmol probe; binding temperature not stated; EMSA buffer not given (cited protocols); details: protein: recombinant, tags: C-terminal CELD (cellulase D) fusion, 6xHis, label: none
[4] = molecular target: T2, GRF9-CELD; test: EMSA; CELD plate assay: 25 mM HEPES/KOH pH 7.0, 50 mM KCl, 0.5 mM DTT, 10 uM ZnCl2, 0.15 ug/ul herring sperm DNA, 0.3 mg/ml BSA, 10% glycerol, 0.025% NP-40, 2 pmol probe; binding temperature not stated; EMSA buffer not given (cited protocols); details: protein: recombinant; tags: C-terminal CELD (cellulase D) fusion, 6xHis; label: 5'-DY682; blunt

Row | Molecule | binding signal [2] | other results
1 | CCGGTACTGGTCTGACATACCAGAACTTCA (double strand) [GRFE1] |  | binding signal (relative to GRFE1) [1]: 1
2 | AGGTAAGTTACTGACACACTCCATTCTTGG (double strand) [GRFE15] |  | binding signal (relative to GRFE1) [1]: 0.8
3 | B1 | 0.79 ± 0.03 relative to GRFE1 | 
4 | B2 | 0 relative to GRFE1 | 
5 | B3 |  | binding result ([3]; 3' overhang 3 nt on strand 1 (so in the source)): binds
6 | B4 |  | binding result [4]: binds
7 | B5 |  | binding result ([3]; blunt): no binding
8 | B6 | 0.43 ± 0.04 relative to GRFE1 | 
9 | B7 | 0 relative to GRFE1 | 
10 | B8 | 0 relative to GRFE1 | 
11 | B9 | 0.89 ± 0.08 relative to GRFE1 | 
12 | B10 | 0 relative to GRFE1 | 
